Test results taken from patent US20170037087.

Target: recombinant IL-8 (UniProt P10145)
Sequence (P10145 28-99): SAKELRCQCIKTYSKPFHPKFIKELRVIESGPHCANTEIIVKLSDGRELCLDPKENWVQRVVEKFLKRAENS

“SpyCEP in cell-free GAS culture supernatants” was tested, and the “IL-8 degradation (uncleaved IL-8 by ELISA)” value was “the IL-8 degrading activity of SpyCEP”.
